Experimental data as given in the DeepSol protein solubility set.

assay: soluble on expression in E. coli; label from the status in PepcDB or PDB records

| Sequence | soluble on expression in E. coli |
| --- | --- |
| MDVAALVSGGVDSSVVVHRLCEEGYKPAIFYIRIGMEDKDGYIDCPAEEDIELTTLIARRYGCPFEVVDLHKEYWERVVSYTVETVRRGLTPNPDMMCNKLIKFGCFEERWGYQFDRIATGHYATTDLLNGKTYLSTAKDPVKDQTDFLAQINFAQISKLMFPIGHLLKSEVRAIANAAGLPSAKRKDSQGICFLGKIDYNDFIERYLGKKEGRIIELETGKVIGRHQGYWFHTIGQRKGLGLSGGPWFVVKKDIKRNIILVSRGYDPDAQYGKTIEMETFDFITEDAYEAGYWNREDATPVTFKIRHTPEFTRGLLYKGEKGYRLESEERIQGIAPGQYCVIYDEDHHLCYGSGMITKGR | not soluble |
| MSEQPQQRSTEEVEAIKEDILTALETVIDPELGIDIVNLGLIYEVEFAEETGDTVIKMTLTTMGCPLADVLTEQIHGVLKDIPEVNNIEVKLVWYPAWTTDKMSRYARIALGIR | not soluble |
| GMRNELPPENAYRILESGPIVLVSTRGADGRANLMTMGFHMMMQHEPPLVGAIIGPWDYSHQALSETGECVLAVPTVDLAETVVDIGNCSGDALDKFGHFGLTPVPAQTVDAPLVRQCWANLECRVVDDGWARRYNLWVLEVQRIWIDTARKETRLIHHQGDGRFSVDGDTLDLGERMTKWRHLMG | soluble |
| MKKMLVLLFVCLLVLAGCSSKSEPQGGGAAKKAEPKVMKMAVATSKDRSLTKGLYKFAEIVEKETNGSIKVEVYPDGQLGGDVAVFEALKMGTIQGSTMSTGPIASFAPRIGVLDLPFLFKDRETAYKVLDGKIGQDLLNDLPSVGVIGLNYWENGFRHLTNNKREVKSVDDIKGLKIRTLENDLHIDLWKELGATPVPMVFTELFTALEQHVVDGQENPVGNVAINKFYEVQKYLTKTGHVYNASPLLISKKFWDTLTDKEKDIIKKAAEEARDYQRKLNQEEDEKMFDYLKQQGMVITELSPEEKQKFVEKVQPIYQKYAPKFGQDLVNELINAGK | not soluble |
| MCENEEYRERFPDKHFDLETVLQAKVRPICVVPERTFIGFFHREKSKEEEEKEDVSLDFLKGVMSFDSIWEEIMKQEPEESASEHVIYIVSWNDHYFVLLVNHDAYYIIDTLGERVYEGCNQAYVLKFDQDAEIKRLPSVIKDNKADMGSQKQGGKNKYEQPERSKESEEQGEEVVVCRGKESCREYIKSFLAAIPIQQVKADMKEGLVSSFHHRLQIELYYTKHLHHRQPNMFESSTTKVTVSEATVSMTVAWLLASQFSNSGGFGCEMAELLGIKV | soluble |
| MHHHHHHSSGLVPRGSGMKETAAAKFERQHMDSPDLGTDDDDKAMADIGSEFMSTYHERPLGPASAAEWFRQRSYDYGQFPPEDLARRKRELGLTVSAVLPSRNVADTVGGIIDEIHALNERAPLIDQILVVDADSEDGTAGVAASHGAEVYSENELMSGYGDAHGKGDAMWRALSVTRGDLVLYIDADTRDFRPQLAYGVLGPVLEVPGVRFVKAAYRRPFRKGESIEEDGGGRVTELTAKPLFNLFYPELAGFVQPLAGEFVADRELFCSIPFLTGYAVETGIMIDVLKKVGLGAMAQVDLGERQNRHQHLRDLSRMSYAVVRAVARRLRQEGRLQQLREPGLPESFFQLSDYLHAVATPEGLKLQEYVEELVERPPINEVLRVR | soluble |
| MGSDKIHHHHHHMFMPEAVNWNRPIKVGVSSCLLGEKVRYDGGHKHDHYITDVLGKFFTFVPVCPEVGCGMPVPREAMRLEGDPEHPRLVTNKTRIDKTEQMRAFCKQKVTELADEELCGFIFKKDSPSSGLFRVKVHNEGMPTRSGSGLFAAAVVKHFPLLPAEEEGRLNDAAIRENFIERIFCYRRWKDFLLDSPDLGHLVTFHARHKLLILAHSTSIYREMGSLVAHGKGMSWPELAQSYEALFMKALALHATVKKNTNVLTHIMGYFKRDLSPAEKEELLGVIKEYHDRLVPLIVPLTLLKHYVGKYGQSYLQQQYYLSPHPAELMLRNHV | not soluble |
| RLLGAPVPVDENDEGLQRALQFAMAEYNRASNDKYSSRVVRVISAKRQLVSGIKYILQVEIGRTTCPKSSGDLQSCEFHDEPEMAKYTTCTFVVYSIPWLNQIKLLESKCQ | soluble |
| AQPKETILSIKDLVVKESRGLDAVKNLSLDVRAGEVVGIAGIDGNGQTELIQALAGLTKVENGSIHLNEKEITNRKPREITEMGVAHVPEDRHKYGLVLEMTLAENIGLQTYYQKPYSSTGILNYRMINKHARELIEEYDVRTPNELVPARALSGGNQQKAIIAREVDRDPDLLIVSQPTRGLDVGAIEYIHRRLIEQRDKNKAVLLVSFELDEILNVSDRIAVIHAGEIVGIVDPKETTENELGLLMAGYSLEEARAELSKVEAGETVE | not soluble |
| GPGSMIKIHTEKDFIKMRAAGKLAAETLDFITDHVKPNVTTNSLNDLCHNFITSHNAIPAPLNYKGFPKSICTSINHVVCHGIPNDKPLKNGDIVNIDVTVILDGWYGDTSRMYYVGDVAIKPKRLIQVTYDAMMKGIEVVRPGAKLGDIGYAIQSYAEKHNYSVVRDYTGHGIGRVFHDKPSILNYGRNGTGLTLKEGMFFTVEPMINAGNYDTILSKLDGWTVTTRDKSLSAQFEHTIGVTKDGFEIFTLSPKKLDYPPY | soluble |
| EVLVTGYQTLSKERSTGAFSKVSTEKLELKRMDNLSSMLEGQVAGYVNGQIRGVTTMNAVANPMVVIDGFPVENTTLDRIGQTTENMPDLNPEDIESVTVLKDAAAASIYGARAANGVIVITTKKAK | not soluble |
| GAMAPATVNVEVLQDKLDHPWALAFLPDNHGMLITLRGGELRHWQAGKGLSAPLSGVPDVWAHGQGGLLDVVLAPDFAQSRRIWLSYSEVGDDGKAGTAVGYGRLSDDLSKVTDFRTVFRQMPKLSTGNHFGGRLVFDGKGYLFIALGENNQRPTAQDLDKLQGKLVRLTDQGEIPDDNPFIKESGVRAEIWSYGIRNPQGMAMNPWSNALWLNEHGPRGGDEINIPQKGKNYGWPLATWGINYSGFKIPEAKGEIVAGTEQPVFYWKDSPAVSGMAFYNSDKFPQWQQKLFIGALKDKDVIVMSVNGDKVTEDGRILTDRGQRIRDVRTGPDGYLYVLTDESSGELLKVSPR | soluble |
| MSLGDRMKIVMVTHGGEGDAFWDRVRKGAEAAAAKDGVDLTYAGDADTADQADLVRDAIRDKADGIAVTLAKPQAMKAPVAEAKAAGIPVVGLNSGIDAWRSTGLLEYFGQDESVAGRAVGDKLDDLRAKHALCVIHERGNVALEARCAGVKKTFGGETEMLYVEGTDMKAVGAAVTARLRQDPSIDEVVMNGAAFALTAVEAVDEAGSDAHVATFDLDNDLVAAVKRGDVQFAVDQQPYLQGYLAVDALWLYRTNGNVSGGGVAPVLTGPAFVTREGHHHHHH | soluble |
| MKIHPTAIIDPKAELHESVEVGPYSIIEGNVSIQEGTIIEGHVKICAGSEIGKFNRFHQGAVIGVMPQDLGFNQQLLTKTVIGDHNIFREYSNIHKGTKEDSPTVIGNKNYFMGNSHVGHDCILGNNNILTHGAVLAGHVTLGNFAFISGLVAVHQFCFVGDYSMVAGLAKVVQDVPPYSTVDGNPSTVVGLNSVGMKRAGFSPEVRNAIKHAYKVIYHSGISTRKALDELEASGNLIEQVKYIIKFFRDSDRGVTNHR | soluble |
| MGSDKIHHHHHHMNYLEAEDLTTGYGRQVISEALNCSFEAGTITSIIGPNGCGKSTLLKTLARILPAEKGKVFIKNQELQHFSSKEVAQELAILSQTPENTIDLSVFDLVSFGRYPYQSGWKSVTTEDQEYIQWALELTGLTELARESVAILSGGQRQRVWIAMALVQDTDILILDEPTTYLDPAHQLEILNVLKRINQEHQKTIVMTIHDINLASRFSDRVIAMKEGKIINEGTPQEVITVTGLADVFAIQAEISYHSQTQRPLVLSYELMEMELDG | not soluble |
| MHPIETPDKTFHDGDGVSELGTILPAWWLNQVQSELLAVLTAAGIQPDKSQPNQLLAALNRLAVVITGDQTVNGQKTFTAQTQFQSGIHLSANQTNWNGGHKAYIGADADNAHIVFGDDTLRLHGANNRISYNNHDIFHKANKPRFAEDIQGKPNTLSGYGIGNFKVETFRGDLNTLKTDGIYSLPTAVGSSNLPVENTACHIQVIAGTKHGWCRQLGYPAYTSDVYERHQTSSANDNWSAWKKLNSDGIPVGAIVSFPKAVQNPAGYLKANGTTFAQNTFPDLYRALGNSNRLPDLSRTDIGITAWFPSDQIPTGWLAFDDIRTRVTETAYPELYRLLTGKYGSIQNVPQAEDRFIRNAGNSLAVGTKQEDEIKRHVHKVFSHWTNHTDAAALGYEDRNERQRSALVSTWTDENLNDNGFLTPRSDSKMATGGDENRPKALVLKLCIKAADTLGEAVFWIKSHGETINAGALDAGTLAQGLQDKADRDHTHTAAQIQGLDEKISTAVAAQFTRQTIGGVDIVRFPDGTMIQTGSYRFTRSGGPIENEVVFPVAFADGNVKCFVSERHSERVTGDRRQHNWLFIRAKNHAAAIITNWYEGSCDWMAIGKAASGNAASSPIGPEIPETNEEPQRESGRTSTGPRNRRRRDGLLEALQD | not soluble |
| MKELKQAEQIRTWVQSILTDESSGHDWHHVSRVADLAAYIGEKEKADLFIVETAALVHDLIDVKLPDTVRLSVSEVYDQLVFFGVGKENADRVIHIITRMSFRDRGKLAKEPLSIEGKAVQDADRLDAIGAVGIARAFMFAGAKGHGLYGDEQSAYAHFFHKLLRLKDMMNTDTARELAEERHNFMLQFVRQLEKDIPGIDAETSLEHHHHHH | soluble |
| MGSDKIHHHHHHGGLGDKSFNDGTWAGIKQAAEELGIEAKVIQSYEQSDYIPNLSKAAEEADLVFAVGFMMTNDLFKVAKQYPDTYFVGIDITPPEGQILPNVLTFTFKEQEAAFLVGYVAAAMTKTGMVGFVGGIPIPPVERFRYGYEAGIKTYSVLHKKNVKILRGYTQDFEDPKKGKDLAMSQFAEGADIVFHASGACGNGVIEAAREKFSALAGSDKLVDLIDYYTTNGKGFFAIGVDMDQDYMAPGAVLTSAMKRVDVASYYGVVWAYEGTFEGGHRVLGISEDAVGISPMKYTKGLVPNRVIAELLYLEKLMKEGTLKVPETQEELDAFEVPQIEFPF | not soluble |
| MRVLITGGNRGLGLQLVKVFHENGHIIYPLVRTEVAVTQLKQMFSCRCFPILADLAADESTEQIKKQLEEYTEYMDLVINNAGITGKETEVLHTNSEELTDLFNIHCLGVIRAVKGTYMALAKSDHPRIINVSSRLGSLHKMANKEFPQGHFSYSYRIAKAAQNMLTLCLQQEFENKGISVTAIHPGKLKTEIGAFDANMTPAEGTKNIYDWVIDSNEDLSGQFIEPGVGEIKW | not soluble |
| GPGSMGLTQDQTQRVKTAFLSYAQGQPKVSEAMMDQLICGAIPGLSWEQLQAKKAVRKVGADGYDLGAFFAMVNSDPAYIAFIQQHFPPAPPEQKEPEVDALALKTAKGF | soluble |
| MGSDKIHHHHHHMMELLNVNNLKVEFHRVEGIVKAVDGISYKLNKGESLGIVGESGSGKSVSVLSLLRLINRNGRIVDGEAIFLGKDLLKLNKEELRNIRGKDISIIFQNPMTSLNPIIRVGIQVMEPIIWHRLMKNEEARERAIELLERVGIPESPKRFLNYPFQFSGGMRQRVMIAMALACHPKLLIADEPTTALDVTIQAQIMELLQELKEEYGMSVIFITHDLSVATNFCDRIITMYAGKIVEEAPVEEILKTPLHPYTKGLLNSTLEIGSRGKKLVPIPGNPPNPTKHPSGCKFHPRCSFAMEICQREEPPLVNISENHRVACHLIKGESK | not soluble |
